In patent publication US20120225075A1 (LABRYS BIOLOGICS, published 2012):
Numbering of substitutions follows the chain as printed. Each block holds one binder with its values, some of them ahead of it.

Experiments:
[1] = target: T1, N-LC-biotinylated rat α-CGRP (rat, N-LC-biotinylated); assay: SPR (Biacore 3000), Fab over N-biotin CGRP captured on SA chip, 37 °C
T1 construct: Captured on a streptavidin sensor chip; also called α-rat
T1 peptide: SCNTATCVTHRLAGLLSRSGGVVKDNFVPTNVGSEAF
Protocol: (§1) Interaction analysis was conducted at 25° C. and at 37° C. on a Biacore 3000™ system equipped with streptavidin-coated (SA) sensor chips (Biacore AB, Uppsala, Sweden) using standard Biacore running buffers (HBS-P or HBS-EP). N-LC-biotinylated human and rat α- and β-CGRPs were captured on individual flow cells at low levels (typically 100 response units) to provide the reaction surfaces, while an unmodified flow cell served as a reference channel. Purified Fab fragments of antibodies G1 and G2 were generated. Typically, Fabs were prepared as a two-fold serial dilution using 0.5 μM as the top concentration and injected for 1-min at 100 μl/min allowing up to two hours for the dissociation time. Surfaces were regenerated with a mixture of 50% v/v ethanol+25 mM NaOH for G1 Fab and 2:1 v/v Pierce Gentle Elution Buffer/4M NaCl for G2 Fab. […] The binding responses were double-referenced and fit globally to a simple model using BiaEvaluation v. 4.0 software. Affinities were deduced from the quotient of the kinetic rate constants (KD=koff/kₒₙ).

[2] = target: T2, N-LC-biotinylated human α-CGRP (human (the filing says that cynomolgus …, N-LC-biotinylated)); assay: as above
T2 construct: Captured on a streptavidin sensor chip; also called α-human/cyno; α-human
T2 peptide: T1 peptide with S1A, N3D, D25N, E35K
Protocol: as §1

[3] = target: T1, N-LC-biotinylated rat α-CGRP; assay: SPR (Biacore 3000), Fab over N-biotin CGRP captured on SA chip, 25 °C
Protocol: as §1

[4] = target: T3, N-LC-biotinylated human β-CGRP (human (the filing says that cynomolgus …, N-LC-biotinylated)); assay: as above
T3 construct: Captured on a streptavidin sensor chip; also called β-human/cyno; β-human
T3 peptide: T1 peptide with S1A, V22M, D25S, E35K
Protocol: as §1

[5] = target: T2, N-LC-biotinylated human α-CGRP; assay: as above
Protocol: as §1

[6] = target: T4, N-LC-biotinylated rat β-CGRP (rat, N-LC-biotinylated (in the assay with CGRP on the chip)); assay: SPR, reverse orientation assay format (data not shown)
T4 construct: Captured on a streptavidin sensor chip for G1; also called β-rat
T4 peptide: T1 peptide with E35K

[7] = target: T1, N-LC-biotinylated rat α-CGRP; assay: SPR (Biacore 3000), Fab over N-biotin-CGRP captured on SA chip, 25 °C
Protocol: as §1

[8] = target: T2, N-LC-biotinylated human α-CGRP; assay: as above
Protocol: as §1

[9] = target: T4, N-LC-biotinylated rat β-CGRP; assay: SPR (Biacore 3000), Fab over N-biotin-CGRP captured on SA chip, 37 °C; 37 C; upper bound, 20-min dissociation
Protocol: as §1
The dissociation of G1 Fab from α-human, β-human, and […] occurs very slowly. As such, the offrate (koff) cannot be measured accurately unless the dissociation phase is monitored for a very long time. As a general rule-of-thumb, the binding response decays at least 5% over the allowed dissociation time for the report of an accurate offrate. […]

[10] = target: T4, N-LC-biotinylated rat β-CGRP; assay: SPR (Biacore 3000), side-by-side on the same chip, 20-min dissociation time, 37 °C; 37 C; side-by-side on the same chip; 20-min dissociation; rounded figure for three CGRPs
Protocol: as §1
(§2) The dissociation of G1 Fab from α-human, β-human, and […] occurs very slowly. As such, the offrate (koff) cannot be measured accurately unless the dissociation phase is monitored for a very long time. As a general rule-of-thumb, the binding response decays at least 5% over the allowed dissociation time for the report of an accurate offrate. However, monitoring long dissociation times on the Biacore is hindered by baseline drift, which is particularly challenging when working at the low surface capacities required for kinetic analyses. […] As a result, the offrates for β-CGRPs cannot be resolved as accurately as those for α-CGRPs.

[11] = target: T3, N-LC-biotinylated human β-CGRP; assay: as above
Protocol: as §1, §2

[12] = target: T2, N-LC-biotinylated human α-CGRP; assay: as above
Protocol: as §1, §2

[13] = target: T2, N-LC-biotinylated human α-CGRP; assay: SPR (Biacore 3000), side-by-side on the same chip at 37 °C, 20-min dissociation time; 37 C; side-by-side on the same chip; 20-min dissociation
Protocol: as §1
The results for antibody G1 are expressed in Table 1 below. […] Human and cynomolgus monkey have identical sequences; therefore, the human data also apply to cynomolgus.

[14] = target: T1, N-LC-biotinylated rat α-CGRP; assay: SPR (Biacore 3000), Fab over N-biotin-CGRP captured on SA chip, 37 °C
Protocol: as §1

[15] = target: T4, N-LC-biotinylated rat β-CGRP; assay: as above
Protocol: as §1

[16] = target: T3, N-LC-biotinylated human β-CGRP; assay: as above
Protocol: as §1

[17] = target: T2, N-LC-biotinylated human α-CGRP; assay: as above
Protocol: as §1

125I-human α-CGRP = target: T5, 125I-human α-CGRP (human, 125I label (position not given)); assay: competition radioligand binding: 125I-human α-CGRP on SK-N-MC cell membranes (CGRP1-receptor), 25 °C; IC50 given as binding sites (IgG value multiplied by 2); 25 C; radioligand competition on SK-N-MC membranes; whole IgG, IC50 said to be converted to binding sites
T5 peptide: T1 peptide with S1A, N3D, D25N, E35K
Protocol: A binding assay was performed to measure the IC₅₀ of anti-CGRP G1 antibody in blocking human α-CGRP from binding to the CGRP1-receptor. Membranes (25 μg) from SK-N-MC cells were incubated for 90 minutes at 25° C. in incubation buffer (50 mM Tris-HCl, pH 7.4, 5 mM MgCl₂, 0.1% BSA) containing […] ¹²⁵I-human α-CGRP and varying concentrations of anti-CGRP antibody (0.015 nM-33 nM) in a total volume of 1 ml. Incubation was terminated by filtration through a glass microfiber filter (GF/B, 1 μm) which had been blocked with 0.5% polyethylenimine. The protein-bound radioactivity was determined in a gamma counter.

- Kd [1]: 3.4 nM
- T1/2 [1]: 6.8 min
- koff [1]: 0.0017 s⁻¹
- kon [1]: 500000 M⁻¹ s⁻¹
- Kd [2]: 41.9 nM
- T1/2 [2]: 2.96 min
- koff [2]: 0.0039 s⁻¹
- kon [2]: 93000 M⁻¹ s⁻¹
- Kd [3]: 0.9 nM
- T1/2 [3]: 54 min
- koff [3]: 0.000214 s⁻¹
- kon [3]: 231000 M⁻¹ s⁻¹
- Kd [4]: 19.9 nM
- T1/2 [4]: 7.13 min
- koff [4]: 0.00162 s⁻¹
- kon [4]: 81400 M⁻¹ s⁻¹
- Kd [5]: 19.1 nM
- T1/2 [5]: 10.1 min
- koff [5]: 0.00115 s⁻¹
- kon [5]: 60300 M⁻¹ s⁻¹
B1: Fab fragment of antibody G2 (Fab, V domains shown)
VH: EVQLQQSGPELVKPGASVKMSCKASGYTFTSSVMHWVKQKPGQGLEWIGYINPYNDGTKYNEKFKGKATLTSDKSSSTAYMELSSLTSEDSAVYYCAKGGNDGYWGQGTTLTVSS
VL: EIVLTQSPTTMAASPGEKITITCSASSSISSIYLHWYQQKPGFSPKVLIYRASNLASGVPARFSGSGSGTSYSLTIGTMEAEDVATYYCQQGSTIPFTFGSGTKLEIKR
notes: also called G2 Fab; G2 antibody

- binding result [6]: binds
B2: antibody G2 (form in the reverse orientation assay not stated) (antibody, V domains shown)
VH: B1 VH
VL: EIVLTQSPTTMAASPGEKITITCSASSSISSIYLHWYQQKPGFSPKVLIYRASNLASGVPARFSGSGSGTSYSLTIGTMEAEDVATYYCQQGSTIPFTFGSGTKLEIK
notes: Anti-rat CGRP mouse monoclonal antibody

- T1/2 [7]: 187 min
- koff [7]: 6.18e-05 s⁻¹
- kon [7]: 50800 M⁻¹ s⁻¹
- T1/2 [8]: 1480 min
- koff [8]: 7.8e-06 s⁻¹
- kon [8]: 186000 M⁻¹ s⁻¹
- Kd [9]: < 0.15 nM
- Kd [10]: ~0.15 nM
- Kd [11]: ~0.15 nM
- Kd [12]: ~0.15 nM
- Kd [13]: 0.163 nM
- T1/2 [14]: 28.8 min
- koff [14]: 0.000399 s⁻¹
- kon [14]: 155000 M⁻¹ s⁻¹
- Kd [15]: < 0.152 nM
- T1/2 [15]: 147 min
- koff [15]: < 7.85e-05 s⁻¹
- kon [15]: 516000 M⁻¹ s⁻¹
- Kd [16]: < 0.155 nM
- T1/2 [16]: 166 min
- koff [16]: < 6.98e-05 s⁻¹
- kon [16]: 451000 M⁻¹ s⁻¹
- T1/2 [17]: 318 min
- koff [17]: 3.63e-05 s⁻¹
- kon [17]: 587000 M⁻¹ s⁻¹
B3: Fab fragment of antibody G1 (Fab, V domains shown)
VH: EVQLVESGGGLVQPGGSLRLSCAASGFTFSNYWISWVRQAPGKGLEWVAEIRSESDASATHYAEAVKGRFTISRDNAKNSLYLQMNSLRAEDTAVYYCLAYFDYGLAIQNYWGQGTLVTVSS
VL: EIVLTQSPATLSLSPGERATLSCKASKRVTTYVSWYQQKPGQAPRLLIYGASNRYLGIPARFSGSGSGTDFTLTISSLEPEDFAVYYCSQSYNYPYTFGQGTKLEIK
notes: also called G1 Fab; G1 antibody

- IC50 (125I-human α-CGRP): 1.8 nM
B4: anti-CGRP G1 antibody (whole IgG) (antibody, V domains shown)
VH: B3 VH
VL: EIVLTQSPATLSLSPGERATLSCKASKRVTTYVSWYQQKPGQAPRLLIYGASNRYLGIPARFSGSGSGTDFTLTISSLEPEDFAVYYCSQSYNYPYTFGQGTKLEIKR
notes: also called antibody G1; anti-CGRP antibody
